{"source": "paper PMC7275063", "about": "“Rab35-regulated lipid turnover by myotubularins represses mTORC1 activity and controls myelin growth” (Nature Communications, 2020)", "molecular_target": "eGFP-Rab35CA (Q67L), GTP-locked, constitutively active (mouse, UniProt Q6PHN9 1-201, Q67L)", "sequence (Q6PHN9 whole entry Q67L)": "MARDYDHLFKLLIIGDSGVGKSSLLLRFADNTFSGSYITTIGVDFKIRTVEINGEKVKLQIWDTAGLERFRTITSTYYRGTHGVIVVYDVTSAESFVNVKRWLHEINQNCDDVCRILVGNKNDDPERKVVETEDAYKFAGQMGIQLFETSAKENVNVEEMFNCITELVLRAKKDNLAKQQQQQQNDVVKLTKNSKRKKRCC", "experiment": "co-IP; eGFP-Rab35CA or -DN captured on eGFP-Trap_MA beads from lysates of HEK293T cells co-expressing MTMR13 constructs, 24 h after transfection; 90 min at 4 °C; immunoblot", "details": "partners not purified"}
{"binder": "N-terminally FLAG-tagged MTMR13 (natural protein, MTMR13 (SBF2), full length, printed as aa1-1848, 5547 bp; other constructs end at aa1849; Gift plasmid in pcDNA3.1; the printed length of 1849 codons fits the human protein; also called FLAG-MTMR13; source: HEK293T, transfected, in lysate; not shown: FLAG, N-terminal, kept) not shown", "values": [{"measurement": "ratio of FLAG-MTMR13 bound to CA over DN", "result": 11.6}]}
